Experimental data reported in patent US7262005.
code Z = not defined here; fmk = not defined here

Legend:
[1] = molecular target: 2XUb-DEVD-Bla fusion protein, P62593
caspases = test: cell-based or functional assay

2XUb-DEVD-Bla fusion protein, P62593, sequence (P62593 whole entry, looked up, the tested form may be a part): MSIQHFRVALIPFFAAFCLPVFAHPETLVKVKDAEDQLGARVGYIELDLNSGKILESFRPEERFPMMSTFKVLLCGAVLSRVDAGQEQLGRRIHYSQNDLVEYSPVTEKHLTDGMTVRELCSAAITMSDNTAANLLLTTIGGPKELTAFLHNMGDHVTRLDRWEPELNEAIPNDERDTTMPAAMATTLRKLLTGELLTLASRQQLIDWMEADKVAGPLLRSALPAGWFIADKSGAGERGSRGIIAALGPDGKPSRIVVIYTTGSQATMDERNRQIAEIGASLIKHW

B1: purified recombinant caspase-3 (protein)
chain: SGISLDNSYKMDYPEMGLCIIINNKNFHKSTGMTSRSGTDVDAANLRETFRNLKYEVRNKNDLTREEIVELMRDVSKEDHSKRSSFVCVLLSHGEEGIIFGTNGPVDLKKITNFFRGDRCRSLTGKPKLFIIQACRGTELDCGIETDSGVDDDMACHKIPVEADFLYAYSTAPGYYSWRNSKDGSWFIQSLCAMLKQYADKLEFMHILTRVNRKVATEFESFSFDATFHAKKQIPCIVSMLTKELYFYH
in vitro cleavage of the 35S-labeled fusion by 25 nM purified caspase-3, SDS-PAGE and autoradiography [1]: over 90% cleavage within 5 minutes

{code Z}-Val-Ala-Asp-fmk (reading uncertain; also: printed as Z-VAD-fmk) [Z-VAD-fmk]
460/530 emission ratio, + αFas/+ inh/+ chx, Jurkat cells expressing 2XUb-DEVD-Bla, 10 µM Z-VAD-fmk (460/530 emission ratio) (caspases): 0.08
IC50 of inhibition of anti-Fas-induced caspase activity in Jurkat cells expressing 2XUb-DEVD-Bla (β-lactamase activity, CCF2 460/530 nm ratio) (caspases): 5 µM
